This note sets out measurements from article PMC8366792.

One may read the stoichiometry N as a count of units in the complex or per binding partner.

In experiment [1] the target is CH848 10.17DT DS SOSIP trimer (HIV-1 (CH848 10.17) | HIV-1 (BG505)) (UniProt Q2N0S6). Briefly: SEC. (In general: Size exclusion chromatography separates by hydrodynamic size, large species first.)
In experiment [2] the target is CH848 10.17DT SOSIPv4.1 trimer (HIV-1 (CH848 10.17) | HIV-1 (BG505)) (UniProt Q2N0S6). Briefly: SEC.

In experiment [1], “CH848 10.17DT DS SOSIP trimer (from UniProt Q2N0S6 509-661) (domain or fragment)” showed a percent of the total peak that is trimer of 65% and a stoichiometry N of 3.
“CH848 10.17DT SOSIPv4.1 trimer (from UniProt Q2N0S6 509-661) (domain or fragment)” showed a percent of the total peak that is trimer in experiment [2] of 62%.
